Measurements reported in the RNAGym collection of RNA variant scans (doi:10.7554/elife.90254).

B1: LINE1-mini (parent)
chain: GGCAGAGCUCAACACAGCGUGGCAAAGUGGCUGUGGCUAGACUGCC

Variants of: B1
Assay: self-cleavage, relative activity (ratio to wild type); higher = more cleavage; in vitro, sequencing; the parent is a self-cleaving ribozyme

Q: Which self-cleavage does the source give for GGUAAAGCUCAACACAGCGUGGCAAAGUGGCUGUGGCUAGACUGCC [C3U G5A] here?
A: 0.21

Q: For GGCAGGGCUCAACACAGCGUGGCAAAGUGGCUCUGGCUAGACUGCC [A6G G33C], which self-cleavage is on record?
A: 0.03

Q: With GGCAGAGCUCAACACAGAGUGGCAAAGUGGCUGUGGCUAGACUGUC [C18A C45U] as the variant, how does the self-cleavage read?
A: 0.58

Q: For GGCAGAGCUCACCACAGCGUGGCAAAGCGGCUGUGGCUAGACUGCC [A12C U28C], which self-cleavage is on record?
A: 0.02

Q: With GGCAGGGCUCAACACAGCGUGGCAAAGUGGCUGUGGCUAAACUGCC [A6G G40A] as the variant, how does the self-cleavage read?
A: 0.1

Q: For GGCAGAGCUCAACACAGCGUGGCAAAUUGGCUGUGGCAAGACUGCC [G27U U38A], which self-cleavage is on record?
A: 0.39

Q: For GGCAGAGCUCAACACAGCUUGGCAAAGUUGCUGUGGCUAGACUGCC [G19U G29U], which self-cleavage is on record?
A: 0.8

Q: With GGGAGAGCUCAACACAGCGUGGCAAAGUGGCUGUGGCUCGACUGCC [C3G A39C] as the variant, how does the self-cleavage read?
A: 0.14

Q: Which self-cleavage does the source give for AGCAGAGCUCAACACAGCGUGGCAAAGUGGCUGUGGCGAGACUGCC [G1A U38G] here?
A: 0.03

Q: Which self-cleavage does the source give for GGCAGAGCUGAACACAGCGUGGCAAAGUGGCUGUGGCUAGACCGCC [C10G U43C] here?
A: 0.02

Q: For GGCAGAGCUCAACUCUGCGUGGCAAAGUGGCUGUGGCUAGACUGCC [A14U A16U], which self-cleavage is on record?
A: 0.1

Q: With GGCAGAGCUCAACACAGCGUGGCAAAGGGACUGUGGCUAGACUGCC [U28G G30A] as the variant, how does the self-cleavage read?
A: 0.9

Q: Which self-cleavage does the source give for GGCAGAGCUCAACACAGCGUGGCAAAGCGGCAGUGGCUAGACUGCC [U28C U32A] here?
A: 0.09

Q: For GGCAGAGAGCAACACAGCGUGGCAAAGUGGCUGUGGCUAGACUGCC [C8A U9G], which self-cleavage is on record?
A: 0.03

Q: Which self-cleavage does the source give for GGCAGAGCUCAACAAAGCGUGGCAAAGGGGCUGUGGCUAGACUGCC [C15A U28G] here?
A: 0.06

Q: With GGCAGAGCUCAACACAGCGUGGCAAAGGGGCUGUGGGUAGACUGCC [U28G C37G] as the variant, how does the self-cleavage read?
A: 0.03

Q: With GGCAGAGCUCAACACAGCGUGGAAAAGUCGCUGUGGCUAGACUGCC [C23A G29C] as the variant, how does the self-cleavage read?
A: 0.39

Q: With GGCGGAGCUCAACACAGCGUGGAAAAGUGGCUGUGGCUAGACUGCC [A4G C23A] as the variant, how does the self-cleavage read?
A: 0.44

Q: For GGCAGAGCUCGACACAGCGUGGCAAAGUGGCUGUGGAUAGACUGCC [A11G C37A], which self-cleavage is on record?
A: 0.02

Q: For GGCAGAGCUCAACAAAGCGUGGCAAAGUGGCUGUGCCUAGACUGCC [C15A G36C], which self-cleavage is on record?
A: 0.04

Q: For GGCAGAGCUCAACGCAGCGUGGCAAAGUGACUGUGGCUAGACUGCC [A14G G30A], which self-cleavage is on record?
A: 0.28

Q: Which self-cleavage does the source give for GGCAGAGCUCAACACAGCGUGGCAAAGUGGCUGUGCCUAGACUUCC [G36C G44U] here?
A: 0.08

Q: For GGCAGAGCUCAACACAGCGUGGCAAAGUGGGUGUGGCUAGACUGUC [C31G C45U], which self-cleavage is on record?
A: 0.08

Q: For GGCAGAGCUCAACAGAGCGUGGCAAAGUGGCUGUAGCUAGACUGCC [C15G G35A], which self-cleavage is on record?
A: 0.04

Q: For GGCAGAUCUCAACACAGCGUGGCAAAGUGGCUGUGGCUAGACUGAC [G7U C45A], which self-cleavage is on record?
A: 0.16

Q: For UGCAGAGCUCAACACAGCGUGGCAAAGUGGCUGUGGCUAGUCUGCC [G1U A41U], which self-cleavage is on record?
A: 0.33

Q: For GGCAGAGCUCAACACAGCGUGGCAAAGGGGCUGUAGCUAGACUGCC [U28G G35A], which self-cleavage is on record?
A: 0.14

Q: For GGCAGAGCUCAACACAGAGUGGCAAAGUGGCUGUGACUAGACUGCC [C18A G36A], which self-cleavage is on record?
A: 0.13

Q: Which self-cleavage does the source give for GGCAGAGCUCAACACAGCAUGACAAAGUGGCUGUGGCUAGACUGCC [G19A G22A] here?
A: 0.62

Q: For GGCAGCGCUCAACACAGCGUGGCAAAGUGGCUGUGGCGAGACUGCC [A6C U38G], which self-cleavage is on record?
A: 0.02

Q: Which self-cleavage does the source give for GCCAGAGCUCAACACAGCGUGGCAAAGUGGCUGUGGCUAGACUGUC [G2C C45U] here?
A: 0.19

Q: Which self-cleavage does the source give for GGCAGAGCUCAACACAGCGUGGCAAGGUGGCUGUGGCUAGACUCCC [A26G G44C] here?
A: 0.28

Q: Which self-cleavage does the source give for GGCAGAGCACAAGACAGCGUGGCAAAGUGGCUGUGGCUAGACUGCC [U9A C13G] here?
A: 0.23

Q: With GGCAGAGCUCAACACAGCGUCGCAAAGUGGCUGUCGCUAGACUGCC [G21C G35C] as the variant, how does the self-cleavage read?
A: 0.08

Q: With GGCAGGGCUCAUCACAGCGUGGCAAAGUGGCUGUGGCUAGACUGCC [A6G A12U] as the variant, how does the self-cleavage read?
A: 0.09

Q: For GGCAGAGCUCAACCCAGCGUGGCAAAGUGGCUGUGGUUAGACUGCC [A14C C37U], which self-cleavage is on record?
A: 0.02

Q: For AGCAGAGCUCAACACAGUGUGGCAAAGUGGCUGUGGCUAGACUGCC [G1A C18U], which self-cleavage is on record?
A: 0.94

Q: Which self-cleavage does the source give for GGCAGAGCUCAACAUAGCGCGGCAAAGUGGCUGUGGCUAGACUGCC [C15U U20C] here?
A: 0.32

Q: Which self-cleavage does the source give for GGCAGAGCUCAACACAGCGUGUCAAAGUGGCUGUGGCUAGACUGUC [G22U C45U] here?
A: 1.25

Q: For GGCAGAGCUCAACACAGCGUGGCAAAGUAGCUUUGGCUAGACUGCC [G29A G33U], which self-cleavage is on record?
A: 0.12

Q: Which self-cleavage does the source give for GUCAGAGCUCAACAGAGCGUGGCAAAGUGGCUGUGGCUAGACUGCC [G2U C15G] here?
A: 0.02

Q: Which self-cleavage does the source give for GGCAGAGCGCAACACAGCGUGGUAAAGUGGCUGUGGCUAGACUGCC [U9G C23U] here?
A: 0.07

Q: For GGCAGAUCUCAACACAGCGUGGCAAAGUGGCUGUGGCUAGACAGCC [G7U U43A], which self-cleavage is on record?
A: 0.11

Q: With GGCAGAGCUCAACAGAGCGUGGCAAAGUGGCUGUGGGUAGACUGCC [C15G C37G] as the variant, how does the self-cleavage read?
A: 0.02

Q: With GGCAGAGCUCAACACGGCGUGGCAAAGUGGCUGUGGCUUGACUGCC [A16G A39U] as the variant, how does the self-cleavage read?
A: 0.14

Q: For GGCAGAGCUCAACACAGCGUGGCAAAGUGGCCGUGGCUAGAGUGCC [U32C C42G], which self-cleavage is on record?
A: 0.1

Q: With GGCAGAGCUCUACACAGCGUGGCAAAGUGGCUGUGGCUAGACGGCC [A11U U43G] as the variant, how does the self-cleavage read?
A: 0

Q: Which self-cleavage does the source give for GGCAGGGCUCAACACAGCGUGGCAAAGUGGCUGUGGCUAGACGGCC [A6G U43G] here?
A: 0

Q: For GGCAGGGCUCAACACAGCGUGGCAAAGUGGCUGUGGCUAGACAGCC [A6G U43A], which self-cleavage is on record?
A: 0.15

Q: For GGCAGAGCUCAAUACAGUGUGGCAAAGUGGCUGUGGCUAGACUGCC [C13U C18U], which self-cleavage is on record?
A: 0.12

Q: With GGCAGUGCUCAACACAGCGUGGCAUAGUGGCUGUGGCUAGACUGCC [A6U A25U] as the variant, how does the self-cleavage read?
A: 0.72

Q: Which self-cleavage does the source give for GGCAGAGCUCAGCACCGCGUGGCAAAGUGGCUGUGGCUAGACUGCC [A12G A16C] here?
A: 0.06

Q: With GGCAGAACUCAACACAGCGUGGCAAAGUGGCUGUGGCUAGAAUGCC [G7A C42A] as the variant, how does the self-cleavage read?
A: 0.18

Q: For GGCAGAGCUCAACAUAGCGUGUCAAAGUGGCUGUGGCUAGACUGCC [C15U G22U], which self-cleavage is on record?
A: 0.78

Q: Which self-cleavage does the source give for GGCAGAGGUCAACACAGCGUGACAAAGUGGCUGUGGCUAGACUGCC [C8G G22A] here?
A: 0.1

Q: With GGAAGAGCUCAACACAGCGUGGCAAAGUGGCUGUGGCUCGACUGCC [C3A A39C] as the variant, how does the self-cleavage read?
A: 0.11
